This assay concerns the target p73α (UniProt O15350). Kind of assay: cell-based or functional assay.

Sequence of p73α (O15350 whole entry): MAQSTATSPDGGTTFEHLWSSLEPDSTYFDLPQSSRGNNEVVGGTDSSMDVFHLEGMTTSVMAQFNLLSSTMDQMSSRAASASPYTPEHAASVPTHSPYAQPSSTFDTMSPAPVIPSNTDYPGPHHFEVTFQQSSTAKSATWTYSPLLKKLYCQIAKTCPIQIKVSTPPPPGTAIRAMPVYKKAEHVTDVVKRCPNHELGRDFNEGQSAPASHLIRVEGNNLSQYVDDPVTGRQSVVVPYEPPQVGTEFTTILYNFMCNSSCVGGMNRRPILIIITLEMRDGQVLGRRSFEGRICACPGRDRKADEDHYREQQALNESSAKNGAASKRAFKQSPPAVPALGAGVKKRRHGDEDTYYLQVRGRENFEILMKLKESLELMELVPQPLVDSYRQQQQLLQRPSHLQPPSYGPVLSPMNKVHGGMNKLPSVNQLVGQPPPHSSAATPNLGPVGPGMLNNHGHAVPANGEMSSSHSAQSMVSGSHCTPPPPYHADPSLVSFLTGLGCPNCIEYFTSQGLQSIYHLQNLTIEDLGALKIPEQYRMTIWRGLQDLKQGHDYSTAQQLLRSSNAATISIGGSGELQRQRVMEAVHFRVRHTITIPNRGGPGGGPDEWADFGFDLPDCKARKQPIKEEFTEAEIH

B1: Apoptosis Stimulating Protein 1 (ASPP1) (protein)
chain: MMPMILTVFLSNNEQILTEVPITPETTCRDVVEFCKEPGEGSCHLAEVWRGNERPIPFDHMMYEHLQIWGPRREEVKFFLRHEDSPTENSEQGGRQTQEQRTQRNVINVPGDKRTEYGVGNPRVELTLSELQDMAARQQQQIENQQQMLVAKEQRLHFLKQQERRQQQSISENEKLQKLKERVEAQENKLKKIRAMRGQVDYSKIMNGNLSAEIERFSAMFQEKKQEVQTAILRVDQLSQQLEDLKKGKLNGFQSYNGKLTGPAAVELKRLYQELQIRNQLNQEQNSKLQQQKELLNKRNMEVAMMDKRISELRERLYGKKIQLNRVNGTSSPQSPLSTSGRVAAVGPYIQVPSAGSFPVLGDPIKPQSLSIASNAAHGRSKSANDGNWPTLKQNSSSSVKPVQVAGADWKDPSVEGSVKQGTVSSQPVPFSALGPTEKPGIEIGKVPPPIPGVGKQLPPSYGTYPSPTPLGPGSTSSLERRKEGSLPRPSAGLPSRQRPTLLPATGSTPQPGSSQQIQQRISVPPSPTYPPAGPPAFPAGDSKPELPLTVAIRPFLADKGSRPQSPRKGPQTVNSSSIYSMYLQQATPPKNYQPAAHSALNKSVKAVYGKPVLPSGSTSPSPLPFLHGSLSTGTPQPQPPSESTEKEPEQDGPAAPADGSTVESLPRPLSPTKLTPIVHSPLRYQSDADLEALRRKLANAPRPLKKRSSITEPEGPGGPNIQKLLYQRFNTLAGGMEGTPFYQPSPSQDFMGTLADVDNGNTNANGNLEELPPAQPTAPLPAEPAPSSDANDNELPSPEPEELICPQTTHQTAEPAEDNNNNVATVPTTEQIPSPVAEAPSPGEEQVPPAPLPPASHPPATSTNKRTNLKKPNSERTGHGLRVRFNPLALLLDASLEGEFDLVQRIIYEVEDPSKPNDEGITPLHNAVCAGHHHIVKFLLDFGVNVNAADSDGWTPLHCAASCNSVHLCKQLVESGAAIFASTISDIETAADKCEEMEEGYIQCSQFLYGVQEKLGVMNKGVAYALWDYEAQNSDELSFHEGDALTILRRKDESETEWWWARLGDREGYVPKNLLGLYPRIKPRQRTLA
Turning to B1, the transactivation function on the Bax promoter (Bax-luc reporter) was determined as 3 fold.

B2: ASPP2 (1-1128) (protein)
chain: MMPMFLTVYLSNNEQHFTEVPVTPETICRDVVDLCKEPGESDCHLAEVWCGSERPVADNERMFDVLQRFGSQRNEVRFFLRHERPPGRDIVSGPRSQDPSLKRNGVKVPGEYRRKENGVNSPRMDLTLAELQEMASRQQQQIEAQQQLLATKEQRLKFLKQQDQRQQQQVAEQEKLKRLKEIAENQEAKLKKVRALKGHVEQKRLSNGKLVEEIEQMNNLFQQKQRELVLAVSKVEELTRQLEMLKNGRIDSHHDNQSAVAELDRLYKELQLRNKLNQEQNAKLQQQRECLNKRNSEVAVMDKRVNELRDRLWKKKAALQQKENLPVSSDGNLPQQAASAPSRVAAVGPYIQSSTMPRMPSRPELLVKPALPDGSLVIQASEGPMKIQTLPNMRSGAASQTKGSKIHPVGPDWSPSNADLFPSQGSASVPQSTGNALDQVDDGEVPLREKEKKVRPFSMFDAVDQSNAPPSFGTLRKNQSSEDILRDAQVANKNVAKVPPPVPTKPKQINLPYFGQTNQPPSDIKPDGSSQQLSTVVPSMGTKPKPAGQQPRVLLSPSIPSVGQDQTLSPGSKQESPPAAAVRPFTPQPSKDTLLPPFRKPQTVAASSIYSMYTQQQAPGKNFQQAVQSALTKTHTRGPHFSSVYGKPVIAAAQNQQQHPENIYSNSQGKPGSPEPETEPVSSVQENHENERIPRPLSPTKLLPFLSNPYRNQSDADLEALRKKLSNAPRPLKKRSSITEPEGPNGPNIQKLLYQRTTIAAMETISVPSYPSKSASVTASSESPVEIQNPYLHVEPEKEVVSLVPESLSPEDVGNASTENSDMPAPSPGLDYEPEGVPDNSPNLQNNPEEPNPEAPHVLDVYLEEYPPYPPPPYPSGEPEGPGEDSVSMRPPEITGQVSLPPGKRTNLRKTGSERIAHGMRVKFNPLALLLDSSLEGEFDLVQRIIYEVDDPSLPNDEGITALHNAVCAGHTEIVKFLVQFGVNVNAADSDGWTPLHCAASCNNVQVCKFLVESGAAVFAMTYSDMQTAADKCEEMEEGYTQCSQFLYGVQEKMGIMNKGVIYALWDYEPQNDDELPMKEGDCMTIIHREDEDEIEWWWARLNDKEGYVPRNLLGLYPRIKPRQRSLA
B2 returned a transactivation function on the Bax promoter (Bax-luc reporter) of 6 fold.

Source of the values: patent US20040228866A1, “Suppressor genes” (Ludwig Institute for Cancer Research, priority 2000, published 2004).
